Substrate in this data set: NC(=O)c1ccc[n+]([C@@H]2O[C@H](COP(=O)(O)OP(=O)(O)OC[C@H]3O[C@@H](n4cnc5c(N)ncnc54)[C@H](O)[C@@H]3O)[C@@H](O)[C@H]2O)c1
The experiment in a line: steady-state kinetics, soluble enzyme and soluble NAD+. The following applies: free enzyme; co-substrate formate. In kind it is biochemical, [Candida] boidinii.

Our source for the Km values is PMC5299495, “Co‐immobilized Phosphorylated Cofactors and Enzymes as Self‐Sufficient Heterogeneous Biocatalysts for Chemical Processes” (Angewandte Chemie (International Ed. in English), 2016).

B1: Cb‐FDH ([Candida] boidinii) (protein)
chain: MKIVLVLYDAGKHAADEEKLYGCTENKLGIANWLKDQGHELITTSDKEGETSELDKHIPDADIIITTPFHPAYITKERLDKAKNLKLVVVAGVGSDHIDLDYINQTGKKISVLEVTGSNVVSVAEHVVMTMLVLVRNFVPAHEQIINHDWEVAAIAKDAYDIEGKTIATIGAGRIGYRVLERLLPFNPKELLYYDYQALPKEAEEKVGARRVENIEELVAQADIVTVNAPLHAGTKGLINKELLSKFKKGAWLVNTARGAICVAEDVAAALESGQLRGYGGDVWFPQPAPKDHPWRDMRNKYGAGNAMTPHYSGTTLDAQTRYAEGTKNILESFFTGKFDYRPQDIILLNGEYVTKAYGKHDKK
notes: free soluble enzyme
With B1, the Km was determined as 85 ± 0.9 µM.

By Km is commonly meant the substrate concentration at which the rate is half of its maximum.
